Target: VARP451-640His6 Q509A (human) (UniProt Q96NW4)
Assay: ITC; Nano ITC; VARP constructs at 60 μM in the cell at 4°C, Rab constructs at 300 μM titrated, 24 injections of 2 μl; 50 mM HEPES pH 7.4, 200 mM NaCl, 5 mM MgCl2, 1 mM TCEP

Sequence of VARP451-640His6 Q509A (human) (Q96NW4 451-640 Q509A): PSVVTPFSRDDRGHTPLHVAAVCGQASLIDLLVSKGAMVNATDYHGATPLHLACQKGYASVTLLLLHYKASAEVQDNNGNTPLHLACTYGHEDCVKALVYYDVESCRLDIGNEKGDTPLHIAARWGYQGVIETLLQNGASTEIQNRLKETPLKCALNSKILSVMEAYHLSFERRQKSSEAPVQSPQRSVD

Kd: 30 µM
Substance: Rab32 1-225 (Q85L), GTP hydrolysis-defective mutant, GST removed (from UniProt Q13637 1-225) (enzyme)

Source: PMC4059916
